From the supplement of paper PMC9233669
This sample holds only a part of the variants without activity.

Tests used:
biotinyl-Val-oxazolone = assay: self-aminoacylation, catalytic enhancement (BVO) (fold over background); higher = more active; k-Seq, kA / k0A0; sequences stand for … in GGGAAUGGAUCCACAUCUACGAAUUC…UUCACUGCAGACUUGACGAAGCUG
In short: (§1)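 Catalytic enhancement equals the median kA over the uncatalyzed rate, the latter read from the low-activity peak of a bimodal Gaussian fit. Values of kA came from fitting each sequence's fraction reacted to a pseudo-first-order model, with 1000 bootstraps. Reacted RNA was captured with streptavidin and quantified by triplicate qPCR and Illumina sequencing after 90 minutes at room temperature with 2–1250 μM biotinyl-aminoacyl-oxazolone and 0.43 μM mutagenized RNA pools bearing a 21-nt variable region.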

biotinyl-Phe-oxazolone = assay: self-aminoacylation, catalytic enhancement (BFO) (fold over background); higher = more active; k-Seq, kA / k0A0; sequences stand for … in GGGAAUGGAUCCACAUCUACGAAUUC…UUCACUGCAGACUUGACGAAGCUG
In short: as §1

biotinyl-Trp-oxazolone = assay: self-aminoacylation, catalytic enhancement (BWO) (fold over background); higher = more active; k-Seq, kA / k0A0; sequences stand for … in GGGAAUGGAUCCACAUCUACGAAUUC…UUCACUGCAGACUUGACGAAGCUG
In short: as §1

biotinyl-Ile-oxazolone = assay: self-aminoacylation, catalytic enhancement (BIO) (fold over background); higher = more active; k-Seq, kA / k0A0; sequences stand for … in GGGAAUGGAUCCACAUCUACGAAUUC…UUCACUGCAGACUUGACGAAGCUG
In short: as §1

biotinyl-Leu-oxazolone = assay: self-aminoacylation, catalytic enhancement (BLO) (fold over background); higher = more active; k-Seq, kA / k0A0; sequences stand for … in GGGAAUGGAUCCACAUCUACGAAUUC…UUCACUGCAGACUUGACGAAGCUG
In short: as §1

biotinyl-Met-oxazolone = assay: self-aminoacylation, catalytic enhancement (BMO) (fold over background); higher = more active; k-Seq, kA / k0A0; sequences stand for … in GGGAAUGGAUCCACAUCUACGAAUUC…UUCACUGCAGACUUGACGAAGCUG
In short: as §1

Sequence	self-aminoacylation (biotinyl-Val-oxazolone)	self-aminoacylation (biotinyl-Phe-oxazolone)	self-aminoacylation (biotinyl-Trp-oxazolone)	self-aminoacylation (biotinyl-Ile-oxazolone)	self-aminoacylation (biotinyl-Leu-oxazolone)	self-aminoacylation (biotinyl-Met-oxazolone)
AUUCAGGUAGGUCAUCGGGUG [Fam2.2 aminoacylation ribozyme variant]	4.23	30.7	5.12	3.68	5.83	4.59
AUUCAUAUAGGUCAUCGGGUG [Fam2.2 aminoacylation ribozyme variant]	3.28	34.2	5.78	3.42	6.04	4.9
AUUCAUCCAGGUCAUCGGGUG [Fam2.2 aminoacylation ribozyme variant]	4.75	47.8	6.96	4.96	9.76	7.87
AUUCAUCUAGGUCAACGGGUG [Fam2.2 aminoacylation ribozyme variant]	2.61	29.6	3.23	2.6	5.32	4.08
AUUCAUCUAGGUCAUCGUGUG [Fam2.2 aminoacylation ribozyme variant]	0.915	4.8	0.882	1.05	1.23	1.16
AUUCAUCUAGGUCAUUGGGUG [Fam2.2 aminoacylation ribozyme variant]	2.77	26.7	4.24	2.67	4.98	4.21
AUUCAUCUAGGUUAUCGGGUG [Fam2.2 aminoacylation ribozyme variant]	2.44	28.8	3.36	2.37	3.86	3.02
AUUCAUCUGGGUCAUCGGGUG [Fam2.2 aminoacylation ribozyme variant]	4.92	53.2	7.66	5.22	10.3	7.57
AUUCAUCUUGGUCAUCGGGUG [Fam2.2 aminoacylation ribozyme variant]	4.56	50.1	7.39	4.97	9.58	7.46
AUUCAUGUAGGUCAUCGGGUG [Fam2.2 aminoacylation ribozyme variant]	3.43	33.9	5.09	3	6.54	5.45
AUUCCCAUAGGUCAUCGGGUG [Fam2.2 aminoacylation ribozyme variant]	13.4	185	22	15.6	32.7	23.9
AUUCCCCUAAGUCAUCGGGUG [Fam2.2 aminoacylation ribozyme variant]	37.9	498	62.2	38.6	85.8	59.1
AUUCCCCUACGUCAUCGGGUG [Fam2.2 aminoacylation ribozyme variant]	11	127	16	10.9	20.9	16
AUUCCCCUAGGUAAUCGGGUG [Fam2.2 aminoacylation ribozyme variant]	6.58	90.8	11.6	7.5	16.3	10.7
AUUCCCCUAGGUCAUCGAGUG [Fam2.2 aminoacylation ribozyme variant]	7.52	66.1	12.6	7.79	15	11
AUUCCCCUAGGUCAUCGGCUG [Fam2.2 aminoacylation ribozyme variant]	7.07	30.9	6.44	8.03	7.58	6.91
AUUCCCCUAGGUCAUCGGGUU [Fam2.2 aminoacylation ribozyme variant]	6.74	36.7	7.29	6.34	8.02	5.77
AUUCCCCUAGGUCAUCGGUUG [Fam2.2 aminoacylation ribozyme variant]	3.38	11.7	2.16	3.4	3.94	3.19
AUUCCCCUAGGUCAUCGUGUG [Fam2.2 aminoacylation ribozyme variant]	4.25	20.7	4.05	3.28	4.37	3.02
AUUCCCCUAGGUUAUCGGGUG [Fam2.2 aminoacylation ribozyme variant]	13.3	187	20	12.9	27.6	20
AUUCCCCUAGUCAUCGAGUGA [Fam2.1 aminoacylation ribozyme variant]	7.18	66.1	15.3	6.5	11.6	11.5
AUUCCCCUAGUUCAUCGGGUG [Fam2.2 aminoacylation ribozyme variant]	6.85	56.5	10.2	6.72	10.1	7.78
AUUCCCCUCGGUCAUCGGGUG [Fam2.2 aminoacylation ribozyme variant]	14	211	22.6	14.8	30.8	21.1
AUUCCCCUGGACAUCGAGUGA [Fam2.1 aminoacylation ribozyme variant]	3.45	35.4	7.13	3.41	6.77	6
AUUCCCCUGGUCAUCGAGAGA [Fam2.1 aminoacylation ribozyme variant]	1.47	3.27	1.96	1.46	1.17	1.68
AUUCCCCUGGUCAUCGAGUAA [Fam2.1 aminoacylation ribozyme variant]	1.7	1.42	1.47	1.55	1.35	1.69

Sequence	self-aminoacylation (biotinyl-Val-oxazolone)	self-aminoacylation (biotinyl-Phe-oxazolone)	self-aminoacylation (biotinyl-Trp-oxazolone)	self-aminoacylation (biotinyl-Ile-oxazolone)	self-aminoacylation (biotinyl-Leu-oxazolone)	self-aminoacylation (biotinyl-Met-oxazolone)
AUUCCCCUGGUCAUCGAGUGA [Fam2.1 aminoacylation ribozyme variant]	4.37	45.7	8.4	4	6.99	6.93
AUUCCCCUGGUCAUCGAUUGA [Fam2.1 aminoacylation ribozyme variant]	1.79	1.13	2.47	1.59	1.73	1.55
AUUCCCCUGGUCAUUGAGUGA [Fam2.1 aminoacylation ribozyme variant]	4.5	64.3	11.7	4.73	8.32	8.79
AUUCCCCUGGUUAUCGAGUGA [Fam2.1 aminoacylation ribozyme variant]	5.49	82.2	14.5	5.07	9.8	10.2
AUUCCCCUUGUCAUCGAGUGA [Fam2.1 aminoacylation ribozyme variant]	7.45	70.6	14.9	6.44	11.4	11.1
AUUCCCUUAGGUCAUCGGGUG [Fam2.2 aminoacylation ribozyme variant]	20.2	295	30.7	19.3	44.3	33.4
AUUCCGCUGGUCAUCGAGUGA [Fam2.1 aminoacylation ribozyme variant]	3.7	45.4	8.05	3.34	6.79	6.08
AUUCGCAUAGGUCAUCGGGUG [Fam2.2 aminoacylation ribozyme variant]	7.08	66	9.43	5.95	12.2	9.49
AUUCGCCCAGGUCAUCGGGUG [Fam2.2 aminoacylation ribozyme variant]	3.96	42	5.2	4.14	6.46	4.75
AUUCGCCUACGUCAUCGGGUG [Fam2.2 aminoacylation ribozyme variant]	3.86	44.1	4.12	3.15	7.11	5.54
AUUCGCCUAGCUCAUCGGGUG [Fam2.2 aminoacylation ribozyme variant]	2.59	12.7	2.87	2.6	2.99	2.28
AUUCGCCUAGGUCAUCAGGUG [Fam2.2 aminoacylation ribozyme variant]	1.53	7.29	2.53	1.48	2.02	1.97
AUUCGCCUAGGUCAUCGAGUG [Fam2.2 aminoacylation ribozyme variant]	7.39	29.3	7.17	8.77	15.9	11.7
AUUCGCCUAGGUCAUCGGGUA [Fam2.2 aminoacylation ribozyme variant]	23.4	391	35.3	25.1	68.8	46.9
AUUCGCCUAGGUCAUCGUGUG [Fam2.2 aminoacylation ribozyme variant]	1.05	3.31	0.823	1.04	1.35	1.45
AUUCGCCUAGGUCAUCUGGUG [Fam2.2 aminoacylation ribozyme variant]	2.23	19.3	3.3	2.24	3.87	2.96
AUUCGCCUAGGUCAUGGGGUG [Fam2.2 aminoacylation ribozyme variant]	4.43	31.7	5.56	3.88	6.48	5.41
AUUCGCCUAGGUCCUCGGGUG [Fam2.2 aminoacylation ribozyme variant]	4.56	46.8	6.48	4.84	8.24	6.35
AUUCUCCCAGGUCAUCGGGUG [Fam2.2 aminoacylation ribozyme variant]	6.91	90	9.06	6.87	12.8	10.2
AUUCUCCUAGCUCAUCGGGUG [Fam2.2 aminoacylation ribozyme variant]	3.75	23.2	4.24	3.32	3.79	3.24
AUUCUCCUAGGUCAUCGAGUG [Fam2.2 aminoacylation ribozyme variant]	3.77	6.65	3.73	3.62	6.3	5.07
AUUCUCCUAGGUCAUCGGGUA [Fam2.2 aminoacylation ribozyme variant]	4.84	29.6	7.31	4.71	8.96	7.07
AUUCUCCUGGUCAUCGAGUGA [Fam2.1 aminoacylation ribozyme variant]	3.89	33.7	7.91	3.67	6.5	6.14
AUUCUCUUAGGUCAUCGGGUG [Fam2.2 aminoacylation ribozyme variant]	5.53	77.6	9.36	5.7	12.5	9.08
AUUCUUCUAGGUCAUCGGGUG [Fam2.2 aminoacylation ribozyme variant]	5.28	50.3	6.98	4.52	9.07	7.87
